This is an account of results in patent US20210292385A1 (WNTRX PHARMACEUTICALS, published 2021).

Assay [1] addresses β-catenin protein (ALPHA screening assay) (UniProt P35222). In words: ALPHA screen: biotinylated peptide on streptavidin donor beads, β-catenin on protein A acceptor beads via anti-β-catenin antibody.
For assay [2], the target named is T1, β-catenin in cells (LEF/TCF-bla HCT-116 reporter cells; Colo320DM cells) (UniProt P35222 2-781, limits assumed).
T1 sequence (looked up): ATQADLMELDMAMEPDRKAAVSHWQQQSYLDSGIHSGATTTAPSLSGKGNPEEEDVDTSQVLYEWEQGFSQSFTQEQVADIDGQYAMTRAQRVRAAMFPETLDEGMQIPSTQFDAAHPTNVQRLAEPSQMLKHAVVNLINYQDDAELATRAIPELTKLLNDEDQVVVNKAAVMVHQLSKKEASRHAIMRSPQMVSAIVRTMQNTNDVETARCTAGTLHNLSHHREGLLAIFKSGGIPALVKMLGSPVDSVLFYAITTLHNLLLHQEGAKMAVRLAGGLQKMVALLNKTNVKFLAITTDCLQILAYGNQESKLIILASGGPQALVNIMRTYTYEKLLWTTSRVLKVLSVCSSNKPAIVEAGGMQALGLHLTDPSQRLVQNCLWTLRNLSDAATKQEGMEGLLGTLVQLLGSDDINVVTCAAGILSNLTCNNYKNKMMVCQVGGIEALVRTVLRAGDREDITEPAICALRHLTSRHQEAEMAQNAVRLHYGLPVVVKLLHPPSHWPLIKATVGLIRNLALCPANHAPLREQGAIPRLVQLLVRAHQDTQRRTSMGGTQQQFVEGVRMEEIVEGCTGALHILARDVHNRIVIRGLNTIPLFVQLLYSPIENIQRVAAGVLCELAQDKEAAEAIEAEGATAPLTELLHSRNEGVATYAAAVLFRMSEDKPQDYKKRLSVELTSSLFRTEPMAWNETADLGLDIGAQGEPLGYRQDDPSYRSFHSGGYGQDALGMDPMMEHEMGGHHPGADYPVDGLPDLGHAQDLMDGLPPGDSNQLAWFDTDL
In words: cell-based or functional assay.

Assay [3] has as its target T1, β-catenin in cells (LEF/TCF-bla HCT-116 …). In words: cell-based or functional assay. This is another data set of the same source.
Assay [4] deals with T2, Histidine-tagged β-catenin (HTRF assay) (UniProt P35222 1-781, limits assumed).
T2 construct: also called His-tag protein; not shown: histidine tag
T2 sequence (looked up): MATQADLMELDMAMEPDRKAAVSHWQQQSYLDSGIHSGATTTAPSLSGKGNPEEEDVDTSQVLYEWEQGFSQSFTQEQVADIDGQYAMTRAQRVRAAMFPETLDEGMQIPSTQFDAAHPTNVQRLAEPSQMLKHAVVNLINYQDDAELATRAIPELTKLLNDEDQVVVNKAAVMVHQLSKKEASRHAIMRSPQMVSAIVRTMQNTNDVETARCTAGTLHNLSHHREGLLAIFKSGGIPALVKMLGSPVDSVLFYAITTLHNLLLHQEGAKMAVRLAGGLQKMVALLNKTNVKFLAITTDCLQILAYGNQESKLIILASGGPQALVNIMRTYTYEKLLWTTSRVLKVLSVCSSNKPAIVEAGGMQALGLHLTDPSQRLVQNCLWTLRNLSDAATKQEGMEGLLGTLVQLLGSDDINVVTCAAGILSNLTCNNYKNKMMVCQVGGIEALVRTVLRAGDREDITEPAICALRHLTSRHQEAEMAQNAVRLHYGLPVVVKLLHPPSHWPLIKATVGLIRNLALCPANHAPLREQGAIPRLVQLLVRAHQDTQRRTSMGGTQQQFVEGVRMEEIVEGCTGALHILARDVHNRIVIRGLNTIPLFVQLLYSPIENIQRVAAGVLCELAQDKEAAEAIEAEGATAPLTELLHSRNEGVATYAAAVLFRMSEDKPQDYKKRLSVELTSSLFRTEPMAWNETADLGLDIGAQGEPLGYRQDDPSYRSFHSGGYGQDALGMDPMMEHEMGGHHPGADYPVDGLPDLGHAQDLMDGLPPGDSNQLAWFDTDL
In words: HTRF assay (Cisbio): biotin-labeled peptide, His-tagged β-catenin, Eu-labeled anti-His antibody and SA-XL665. (In TR-FRET formats the signal depends on donor and acceptor labels being close together.)

Assay [5] addresses T3, β-catenin protein (ALPHA screening assay) (UniProt P35222 1-781, limits assumed).
T3 sequence (looked up): T2 sequence (looked up)
In words: ALPHA screen: biotinylated peptide on streptavidin donor beads, β-catenin on protein A acceptor beads via anti-β-catenin antibody.

Bridge positions count the residues as written; N and C are the ends. Square brackets hold non-standard residues; d marks the D form. 2Nal = N[C@@H](Cc1ccc2ccccc2c1)C(=O)O; S5 = C=CCCC[C@](C)(N)C(=O)O; βAla = NCCC(=O)O

Regarding “full-length HD2 domain of human BCL9 protein (peptide)”, in assay [1], the Kd – broadly, the free concentration of one partner at which half of the binding sites on the other are occupied at equilibrium, for simple one-to-one binding – stood at 20 nM and the signal versus background ratio amounted to 180 fold.

B1: WX-020 (peptide)
peptide: Ac-LR[S5]IQR[S5]L-NH2
modifications: staple 3-7
SMILES: CC[C@H](C)[C@@H]1NC(=O)[C@@](C)(NC(=O)[C@H](CCCNC(=N)N)NC(=O)[C@H](CC(C)C)NC(C)=O)CCCC=CCCC[C@@](C)(C(=O)N[C@@H](CC(C)C)C(N)=O)NC(=O)[C@H](CCCNC(=N)N)NC(=O)[C@H](CCC(N)=O)NC1=O
On to B1, for which, in assay [2], the “IC50, CellTiterGlo cell viability assay, Colo320DM cells” value amounted to 12400 nM and the “IC50, Wnt transcription assay (GeneBLAzer reporter, procedures of Example 4.1)” value came out at 1580 nM.

B2: WX-024 (peptide)
peptide: Ac-LQTLR[S5]IQR[S5]L[2Nal]-NH2
modifications: staple 6-10; also: tested as trifluoroacetic, acetate and hydrochloric salts
For the molecule B2, in assay [2], the “IC50, cell-based Wnt transcription inhibition assay, acetate salt form of WX-024” value was found to be 292 nM and the “IC50, cell-based Wnt transcription inhibition assay, hydrochloric salt of WX-024” value came out at 313 nM. Moreover, in assay [3], the “IC50, GeneBLAzer beta-lactamase reporter assay, LEF-TCF-bla HCT116 cells” value came to 191 nM.

B3: WX-021 (peptide)
peptide: Ac-LR[S5]IQR[S5]L[2Nal][βAla][βAla]-NH2
modifications: staple 3-7
SMILES: CC[C@H](C)[C@@H]1NC(=O)[C@@](C)(NC(=O)[C@H](CCCNC(=N)N)NC(=O)[C@H](CC(C)C)NC(C)=O)CCCC=CCCC[C@@](C)(C(=O)N[C@@H](CC(C)C)C(=O)N[C@@H](Cc2ccc3ccccc3c2)C(=O)NCCC(=O)NCCC(N)=O)NC(=O)[C@H](CCCNC(=N)N)NC(=O)[C@H](CCC(N)=O)NC1=O
Take B3: the “IC50, GeneBLAzer beta-lactamase reporter assay, LEF/TCF-bla HCT-116 cells” value in assay [2] amounted to 764 nM.

B4: WX-024 (conjugated with biotin) (peptide)
peptide: Ac-LQTLR[S5]IQR[S5]L[2Nal]-NH2
modifications: staple 6-10; also: coupled to biotin (site not given here)
notes: also called biotinylated WX-024; BCL9 peptide labeled with biotin
With B4, in assay [4], the Kd was 4.21 nM.

B5: WX-020, biotinylated (ALPHA screen) (peptide)
peptide: Ac-LR[S5]IQR[S5]L-NH2
modifications: staple 3-7; also: biotinylated with a PEG linker, site not given here
notes: The general description of the ALPHA assay says that a biotinylated polypeptide is used
Regarding B5, binding in assay [5] was characterised by a dissociation constant (Kd) of 80 nM.
